Laboratory results: patent publication US20240400708A1
Changes are numbered by the printed parent chain. In names and notes the source's numbering stands.

B1: feline IgG1a S252H/L314K (antibody, part only; not given: Variable domains, not shown: another chain or arm of the molecule; small tags and cut ends)
constant: ASTTAPSVFPLAPSCGTTSGATVALACLVLGYFPEPVTVSWNSGALTSGVHTFPAVLQASGLYSLSSMVTVPSSRWLSDTFTCNVAHPPSNTKVDKTVRKTDHPPGPKPCDCPKCPPPEMLGGPSIFIFPPKPKDTLHISRTPEVTCLVVDLGPDDSDVQITWFVDNTQVYTAKTSPREEQFNSTYRVVSVLPILHQDWKKGKEFKCKVNSKSLPSPIERTISKAKGQPHEPQVYVLPPAQEELSRNKVSVTCLIKSFHPPDIAVEWEITGQPEPENNYRTTPPQLDSDGTYFVYSKLSVDRSHWQRGNTYTCSVSHEALHSHHTQKSLTQSPGK
B2: feline IgG1a S252M/S428M (antibody, part only; not given: Variable domains, not shown: another chain or arm of the molecule)
constant: B1 constant with H138M, K200L, S316M
B3: feline IgG1a S252H/S428M/S434F (antibody, part only; not given: Variable domains, not shown: another chain or arm of the molecule)
constant: B1 constant with K200L, S316M, S322F
B4: feline IgG1a D312K (antibody, part only; not given: Variable domains, not shown: another chain or arm of the molecule)
constant: B1 constant with H138S, D198K, K200L
B5: feline IgG1a D312R (antibody, part only; not given: Variable domains, not shown: another chain or arm of the molecule)
constant: B1 constant with H138S, D198R, K200L
B6: feline IgG1a D399V (antibody, part only; not given: Variable domains, not shown: another chain or arm of the molecule)
constant: B1 constant with H138S, K200L, D287V
B7: feline IgG1a S252H/S428M/D312P (ID No. 221) (antibody, part only; not given: Variable domains, not shown: another chain or arm of the molecule)
constant: B1 constant with D198P, K200L, S316M
B8: feline IgG1a Q311F (antibody, part only; not given: Variable domains, not shown: another chain or arm of the molecule)
constant: B1 constant with H138S, Q197F, K200L
B9: feline IgG1a S252H/S428M/S434L (antibody, part only; not given: Variable domains, not shown: another chain or arm of the molecule)
constant: B1 constant with K200L, S316M, S322L
B10: feline IgG1a S252H/S434F (antibody, part only; not given: Variable domains, not shown: another chain or arm of the molecule)
constant: B1 constant with K200L, S322F
B11: feline IgG1a S252Y/S428M/S434L (antibody, part only; not given: Variable domains, not shown: another chain or arm of the molecule)
constant: B1 constant with H138Y, K200L, S316M, S322L
B12: feline IgG1a S252H/S428M/Q311Y (antibody, part only; not given: Variable domains, not shown: another chain or arm of the molecule)
constant: B1 constant with Q197Y, K200L, S316M
B13: feline IgG1a S252M/S428M/S434N (antibody, part only; not given: Variable domains, not shown: another chain or arm of the molecule)
constant: B1 constant with H138M, K200L, S316M, S322N
B14: feline IgG1a D399M (antibody, part only; not given: Variable domains, not shown: another chain or arm of the molecule)
constant: B1 constant with H138S, K200L, D287M
B15: feline IgG1a S252H/S428M/S434P (antibody, part only; not given: Variable domains, not shown: another chain or arm of the molecule)
constant: B1 constant with K200L, S316M, S322P
B16: feline IgG1a S252H/S434L (antibody, part only; not given: Variable domains, not shown: another chain or arm of the molecule)
constant: B1 constant with K200L, S322L
B17: feline IgG1a S252H/S428M/S434Y (antibody, part only; not given: Variable domains, not shown: another chain or arm of the molecule)
constant: B1 constant with K200L, S316M, S322Y
B18: feline IgG1a S252H/S428M (antibody, part only; not given: Variable domains, not shown: another chain or arm of the molecule; small tags and cut ends)
constant: B1 constant with K200L, S316M
B19: feline IgG1a S252H/S428M/Q311W (antibody, part only; not given: Variable domains, not shown: another chain or arm of the molecule)
constant: B1 constant with Q197W, K200L, S316M
B20: feline IgG1a S252Y/S428M/D312P (antibody, part only; not given: Variable domains, not shown: another chain or arm of the molecule)
constant: B1 constant with H138Y, D198P, K200L, S316M
B21: feline IgG1a Q311H (antibody, part only; not given: Variable domains, not shown: another chain or arm of the molecule)
constant: B1 constant with H138S, Q197H, K200L
B22: feline IgG1a S252H/Q311Y (antibody, part only; not given: variable domains and light chain, not shown: another chain or arm of the molecule; small tags and cut ends)
constant: B1 constant with Q197Y, K200L
B23: feline IgG1a S252Y/S428M/L314K (antibody, part only; not given: Variable domains, not shown: another chain or arm of the molecule)
constant: B1 constant with H138Y, S316M
B24: feline IgG1a S252H/S434P (antibody, part only; not given: Variable domains, not shown: another chain or arm of the molecule)
constant: B1 constant with K200L, S322P
B25: feline IgG1a G402R (antibody, part only; not given: Variable domains, not shown: another chain or arm of the molecule)
constant: B1 constant with H138S, K200L, G290R
B26: feline IgG1a S252Y/S428M/Q311Y (antibody, part only; not given: Variable domains, not shown: another chain or arm of the molecule)
constant: B1 constant with H138Y, Q197Y, K200L, S316M
B27: feline IgG1a L309I (antibody, part only; not given: variable domains, not shown: another chain or arm of the molecule)
constant: B1 constant with H138S, L195I, K200L
B28: feline IgG1a S252H/S428M/S434W (antibody, part only; not given: Variable domains, not shown: another chain or arm of the molecule)
constant: B1 constant with K200L, S316M, S322W
B29: feline IgG1a S252Y/S428M (antibody, part only; not given: Variable domains, not shown: another chain or arm of the molecule)
constant: B1 constant with H138Y, K200L, S316M
B30: feline IgG1a S252H/S434W (antibody, part only; not given: Variable domains, not shown: another chain or arm of the molecule)
constant: B1 constant with K200L, S322W
B31: feline IgG1a S252H/Q311W (antibody, part only; not given: Variable domains, not shown: another chain or arm of the molecule; small tags and cut ends)
constant: B1 constant with Q197W, K200L
B32: feline IgG1a L309G (antibody, part only; not given: Variable domains, not shown: another chain or arm of the molecule)
constant: B1 constant with H138S, L195G, K200L
B33: feline IgG1a S252H/S434Y (antibody, part only; not given: Variable domains, not shown: another chain or arm of the molecule)
constant: B1 constant with K200L, S322Y
B34: feline IgG1a S252Y/S428M/S434F (antibody, part only; not given: Variable domains, not shown: another chain or arm of the molecule)
constant: B1 constant with H138Y, K200L, S316M, S322F
B35: feline IgG1a S252M/S434N (antibody, part only; not given: Variable domains, not shown: another chain or arm of the molecule)
constant: B1 constant with H138M, K200L, S322N
B36: feline IgG1a S252Y/S428M/S434P (antibody, part only; not given: Variable domains, not shown: another chain or arm of the molecule)
constant: B1 constant with H138Y, K200L, S316M, S322P
B37: feline IgG1a S252M/S428M/S434N/H436Y (antibody, part only; not given: Variable domains, not shown: another chain or arm of the molecule)
constant: B1 constant with H138M, K200L, S316M, S322N, H324Y
B38: feline IgG1a S252Y/S428M/Q311W (antibody, part only; not given: Variable domains, not shown: another chain or arm of the molecule)
constant: B1 constant with H138Y, Q197W, K200L, S316M

Molecular target: feline FcRn complex (FcRn-α subunit and β-microglobulin), biotin labeled (feline)
Assay: SPR, pH 6

Row | Kd | Binder
1 | 6.37 nM | B1
2 | 7.27 nM | B2
3 | 0.121 nM | B3
4 | 5.86 nM | B4
5 | 6.91 nM | B5
6 | 8.29 nM | B6
7 | 8.22 nM | B7
8 | 8.85 nM | B8
9 | 8.59 nM | B9
10 | 0.391 nM | B10
11 | 6.91 nM | B11
12 | 5.73 nM | B12
13 | 8.51 nM | B13
14 | 5.33 nM | B14
15 | 7.45 nM | B15
16 | 6.08 nM | B16
17 | 0.138 nM | B17
18 | 2.65 nM | B18
19 | 3.14 nM | B19

Row | Kd | Binder
20 | 0.796 nM | B20
21 | 5.84 nM | B21
22 | 12.1 nM | B22
23 | 2.13 nM | B23
24 | 9.32 nM | B24
25 | 6.1 nM | B25
26 | 2.4 nM | B26
27 | 6.81 nM | B27
28 | 0.135 nM | B28
29 | 2.58 nM | B29
30 | 0.469 nM | B30
31 | 6.04 nM | B31
32 | 9.12 nM | B32
33 | 0.14 nM | B33
34 | 0.0207 nM | B34
35 | 14.8 nM | B35
36 | 4.86 nM | B36
37 | 20.5 nM | B37
38 | 0.506 nM | B38

Molecular target: feline FcRn complex (FcRn-α subunit and β-microglobulin), biotin labeled (feline)
Assay: SPR, pH 7.4

Row | Kd | Binder
39 | 20 nM | B1
40 | 19.5 nM | B2
41 | 26.9 nM | B3
42 | 56.1 nM | B4
43 | 25 nM | B5
44 | 2880 nM | B6
45 | 330 nM | B7
46 | 1370 nM | B8
47 | 3.55 nM | B9
48 | 24.1 nM | B10
49 | 28.9 nM | B11
50 | 141 nM | B12
51 | 15.3 nM | B13
52 | 46.8 nM | B14
53 | 55.6 nM | B15
54 | 3.79 nM | B16
55 | 20.7 nM | B17
56 | 101 nM | B18
57 | 54.6 nM | B19

Row | Kd | Binder
58 | 25.3 nM | B20
59 | 93.7 nM | B21
60 | 36.5 nM | B22
61 | 25 nM | B23
62 | 12.8 nM | B24
63 | 1200 nM | B25
64 | 39.9 nM | B26
65 | 4530 nM | B27
66 | 20.8 nM | B28
67 | 39.2 nM | B29
68 | 31.1 nM | B30
69 | 25 nM | B31
70 | 54.5 nM | B32
71 | 12.5 nM | B33
72 | 9.13 nM | B34
73 | 33.8 nM | B35
74 | 44.4 nM | B36
75 | 28.7 nM | B37
76 | 18.8 nM | B38
